For one experiment, the target named is T1, ferritin (FTH) (Homo sapiens, UniProt P02794).
T1 construct: made in house; host or cells: Escherichia coli BL21 (DE3), plasmid pET20-FTH
Nature of the experiment: Search for peptides capable of being encapsulated into ferritin by disassembly/reassembly process, LC-MS detection. Conditions: encapsulation into ferritin (FTH); three trials. As for the experimental part: Peptides capable of being encapsulated into ferritin by disassembly/reassembly process were searched. In the disassembly/reassembly process, 1 mL of a 50 mM glycine hydrochloride buffer (pH 2.3) containing FTH at a final concentration of 5 mg/mL and the peptide at a final concentration of 0.5 mM, was left to stand at room temperature for 15 minutes. Next, 310 μL of a 1 M Tris hydrochloride buffer (pH 9.0) was added for neutralization, and left to stand at room temperature for 3 hours. After the standing, 1.2 mL of a 50 mM Tris hydrochloride buffer (pH 8.0) was added, and centrifuged (at 15,000 rpm for one minute). Thereafter, 2.5 mL of its supernatant was injected into a desalting column PD-10 (Sephadex G-25 filled product, GE Healthcare Inc.) equilibrated with a 50 mM Tris hydrochloride buffer (pH 8) for the elusion with 3.0 mL of a 50 mM Tris hydrochloride buffer (pH 8.0) to separate non-encapsulated peptides and ferritin. A whole amount (3.0 mL) of the resulting solution was concentrated to 0.1 mL by centrifugal ultrafiltration using Vivaspin 20-100K (GE Healthcare Inc.). The operation of adding 10 mL of a 50 mM Tris hydrochloride buffer to the concentrated solution and then concentrating was repeated twice to remove peptides that were not removed by PD-10 to obtain 0.1 mL of a sample solution. For the LC-MS analysis, 50 p1 of a 1 M glycine hydrochloride buffer (pH 2.3) was added to 50 μL of the sample solution and then the resulting solution was left to stand at room temperature for 15 minutes. To the solution, 900 μL of ethanol was added. Next, the resulting solution was stirred vigorously and then centrifuged (at 15,000 rpm for five minutes) for collection of the supernatant. The supernatant was analyzed using LCMS-2020 (Shimadzu Corporation) as LC-MS, Inertsil (Registered trademark) as a column, ODS-3, particle diameter of 2 μm and 2.1 mm×50 mm (GL science). Thereafter, 10 μL of the sample injected into the column was eluded at a flow rate of 0.2 mL/min for 10 minutes such that a mixing ratio of a solution A (0.1% formic acid/99.9% acetonitrile) and a solution B (50% water/50% acetonitrile) is from 95:5 to 95:5.
The encapsulation of the peptide into ferritin was studied by comparing in terms of the amount of the peptide detected by LC/MS between the sample prepared by encapsulating the peptide into ferritin at the disassembly/reassembly process and the sample prepared simply by mixing ferritin with the peptide. For example, ClAc-FHC was eluted at a retention time of 0.8 minute. […] However, the peak was not observed for the sample prepared by simply mixing the peptide with ferritin without performing the disassembly/reassembly process (FIG. 12B). FIG. 13 to FIG. 17 illustrate LC-MS results for FTH in which the peptide was encapsulated at the disassembly/reassembly process.

In another experiment the test system is SKBR-3 cell. The experiment can be described thus: Cell incorporation test by FACS in SKBR-3 cell. The format is cell-based, human. The following applies: 24 hours, FTH 100, 200 and 400 nM, or peptide without FTH encapsulation at the same peptide concentrations. As for the experimental part:
A human breast cancer derived SKBR-3 cell (20,000 cell/well, 96-well plate) was added to 100 μL media that were produced by adding the PKC-F encapsulating FTH to evaluation media (Opti-MEM™ (Thermo Fisher Scientific Inc.)+1% non-essential amino acid solution (Thermo Fisher Scientific Inc.)+1% penicillin—streptomycin (Nacalai Tesque, Inc.)) at final concentrations of 100 nM (PKC-F concentration 0.86 μM), 200 nM (PKC-F concentration 1.72 μM) and 400 nM (PKC-F concentration 3.44 μM), respectively, and then cultured at 37° C. The transferrin receptor TfR was expressed in the SKBR-3 cell. […] After that 100 μL of an Opti-MEM™ medium was added, and the cells were transferred to a plate for fluorescence-activated cell sorting (FACS), and then subjected to centrifugal separation at 400×g for 5 minutes. The cells for each were suspended in a FACS buffer (Attune™ Focusing Fluid, Thermo Fisher Scientific Inc.), and analyzed by FACS (Attune NxT, Thermo Fisher Scientific Inc.).
The cell incorporation of the obtained FAM-SV40 encapsulating FTH was evaluated. […]
After 100 μL of the Opti-MEM™ medium was added, the cells were transferred to the plate for fluorescence-activated cell sorting (FACS), and then subjected to centrifugal separation at 400×g for 5 minutes. […]

No end group written: not given here.

T1 sequence (P02794 whole entry): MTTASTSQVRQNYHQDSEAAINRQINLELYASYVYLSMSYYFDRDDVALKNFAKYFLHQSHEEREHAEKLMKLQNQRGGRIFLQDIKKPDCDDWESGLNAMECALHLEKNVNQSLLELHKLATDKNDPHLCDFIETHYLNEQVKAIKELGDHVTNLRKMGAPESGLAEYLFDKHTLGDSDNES

As to “5(6)-FAM-CGGPKKKRKVG (SEQ ID NO: 10) ({5(6)‑FAM}-CGGPKKKRKVG) [FAM-SV40, fluorescent dye-modified peptide, linear]”, the encapsulation result with ferritin (FTH) was “A (“A” represents peptides with three times of confirmation of encapsulation.)”. For the same substance, the “fluorescence intensity of cells by FACS” value in the experiment on SKBR-3 cell is “not observed”.

Source of the values: patent publication US20220401560A1, “PEPTIDE ENCAPSULATING FERRITIN” (Ajinomoto Co., Inc., priority 2019, published 2022).
